This note sets out measurements from US20110008841A1 (Amgen, published 2011).

Assay [1] has as its target T1, cynomolgus IL-17RA on cells (cynomolgus).
T1 construct: whole, on cells; also called CHO-cynoIL-17RA; cyno IL-17RA+ CHO cells
The experiment in a line: FACS, biotin-huIL-17A on cyno IL-17RA+ cells with non-clonal supernatant; lower = more inhibition. (In general: In flow cytometry, cells or beads pass a laser one at a time.)

The target of assay [2] is T1, cynomolgus IL-17RA on cells. The experiment in a line: FACS, biotin-huIL-17A on cyno IL-17RA+ CHO cells with non-clonal supernatant; lower = more inhibition.
Method: Non-clonal hybridoma supernatants were prepared in volumes of 1-2 mls (the Ig concentrations were not determined for these supernatants). […] Anti-IL-17RA non-clonal hybridomas were selected for sub-cloning based on their performance in the CHO-IL-17RA FACS assay and HFF bioassay.
For assay [3] the target is unchanged. The assay is described as above. This is another data set of the same source.
Method: The anti-IL-17RA antibodies were characterized. Non-clonal hybridoma supernatants were prepared in volumes of 1-2 mls (the Ig concentrations were not determined for these supernatants).
For assay [4], the target named is Human IL-17RA full-length expressed on the surface of cells (human, UniProt Q96F46 33-866). The experiment in a line: cell-based or functional assay.

B1: AMH5/AML5 (antibody, V domains shown)
VH: QVQLQESGPGLVKPSETLPLTCTVSGGSIRSYYWSWIRQPAGKGLEWIGRIYRSGNTIYNPSLKSRVTMSIDTSKNQFSLTLSSVTAADTAVYYCARENYSESSGLYYYYGMDVWGQGTTVTVSS
VL: DIQMTQSPSSLSASVGDRVTITCRASQGIRNDLGWYQQKPGKAPKRLIYAASSFQSGVPSRFSGSGSGTGFTLTISSLQPEDFATYYCLQHNSYPPTFGQGTKVEIK
notes: also called AM-5
With B1, the MFI in assay [1] was 9.

B2: AMH1/AML1 (antibody, IgG2, V domains shown)
VH: QVQLQESGPGLVKPSETLSLTCTVSGGSISNYYWNWIRQSPGKGLEWIGDIYYSGSTNYNPSLKSRVTISVDTSKNQFSLKLSSVTTADTAVYYCARDGELANYYGSGSYQFYYYYGMDVWGQGTTVTVSS
VL: DILMTQSPSSLSASVGDRVTITCRASQGIRNDLGWYQQKPGKAPKRLIYAASSLQSGVPSRFSGSGSGTEFTLTISSLQPEDFATYYCLQHNSNPFTFGPGTKVDIK
notes: Fully human mAb from IgG2 XenoMouse mice; also called AM-1; antibody H
For B2, the MFI in assay [1] is 11.

B3: AMH13/AML13 (antibody, IgG2, V domains shown)
VH: QVQLVESGGGVVQPGRSLRLSCAASGFTFSSYGMQWVRQAPGKGLEWVAVIWYDGNKKYYADSVKGRFTISRDNSKNTLYLQMNSLRAEDTAVYYCARGRVRDYYYGMDVWGQGTTVTVSS
VL: DIVMTQTPLSLSVTPGQPASIACKSSQSLLHSDGKTYLYWYLQKPGQPPQLLIYEVSTRFSGVPDRFSGSGSGTDFTLKISRVEAEDVGVFYCMQSIQLPLTFGGGTKVEIK
notes: Fully human mAb from IgG2 XenoMouse mice; also called AM-13
Consider B3, for which the MFI in assay [2] worked out at 6.

B4: AMH21/AML21 (antibody, IgG2, V domains shown)
VH: EVQLVESGGGSVQPGGSLRLSCAASGFTFSSYSMNWVRQAPGKGLEWVSIISSRSSIIHYADSVKGRFTISRDNAKNSLYLQMNSLRDEDTAVYYCARPKVGGGMDVWGQGTTVTVSS
VL: DIQMTQSPSSLSASVGDRVTITCRASQGISNYLAWYQQKPGKFPELLIYAASTLQSGVPSRFSGSGSGTDFTLTISSLQPEDVATYYCQKYNRAPFTFGPGTKVDIK
notes: Fully human mAb from IgG2 XenoMouse mice; also called AM-21; antibody Q
B4 had an MFI in assay [3] of 6.

B5: AMH11/AML11 (antibody, IgG2, V domains shown)
VH: QVQLVESGGGVVQPGRSLRLSCATSGITFSSYGMHWVRQAPGKGLEWVAVIWYDGSNKYYADSVKGRFTISRDNSKNTLYLQMNSLRAEDTAVYYCARDTKDYWGQGTLVTVSS
VL: EIVMTQSPATLSVSPGERATLSCRASQSVSSNLAWYQQKPGQAPRLLIYGASTRAAGIPARFSGGGSGTAFTLTISNLQSEDFAVYYCQHYINWPKWTFGQGTKVDIK
notes: Fully human mAb from IgG2 XenoMouse mice; also called AM-11; antibody A
For B5, the MFI in assay [1] was determined as 9.

B6: Germline version A (antibody, V domains shown)
VH: QVQLVQSGAEVKKPGASVKVSCKASGYTFTRYGISWVRQAPGQGLEWMGWISTYSGNTNYAQKLQGRVTMTTDTSTSTAYMELRSLRSDDTAVYYCARRQLYFDYWGQGTLVTVSS
VL: EIVMTQSPATLSVSPGERATLSCRASQSVSSNLAWYQQKPGQAPRLLIYDASTRATGIPARFSGSGSGTDFTLTISSLQSEDFAVYYCQQYDNWPLTFGGGTKVEIK
As to B6, the “IC50, HFF bioassay (ligand not named on the sheet)” value in assay [4] was roughly 107 nM.

B7: AMH17/AML17 (antibody, V domains shown)
VH: QVQLVQSGAEVKKPGAAVKVSCKATGYTLTSYGISWVRQAPGQGLEWMGWISAYSGNTKYAQKLQGRVTMTTDTSTSTAYMELRSLRSDDTAVYYCARKQLVFDYWGQGTLVTVSS
VL: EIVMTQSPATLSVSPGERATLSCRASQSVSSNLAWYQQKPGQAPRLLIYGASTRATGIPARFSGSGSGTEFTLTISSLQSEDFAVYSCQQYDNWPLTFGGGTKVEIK
notes: Fully human mAb from IgG2 XenoMouse mice; also called AM-17; antibody N
For the molecule B7, in assay [2], the MFI was 8.

B8: Germline version B (antibody, V domains shown)
VH: QVQLVQSGAEVKKPGASVKVSCKASGYTFTRYGISWVRQAPGQGLEWMGWISTYSGNTNYAQKLQGRVTMTTDTSTSTAYMELRSLRSDDTAVYYCARRQLYFDYWGQGTLVTVSS
VL: EIVMTQSPATLSVSPGERATLSCRASQSVSSNLAWYQQKPGQAPRLLIYDASTRATGIPARFSGSGSGTEFTLTISSLQSEDFAVYYCQQYDNWPLTFGGGTKVEIK
In the case of B8, the “IC50, HFF bioassay (ligand not named on the sheet)” value in assay [4] was roughly 103 nM.

B9: AMH22/AML22 (antibody, IgG2, V domains shown)
VH: QVQLVQSGAEVKKPGASVKVSCKASGYTFTRYGISWVRQAPGQGLEWMGWISAYSGNTNYAQKLQGRVTMTTDTSTSTAYMELRSLRSDDTAVYYCARRQLYFDYWGQGTLVTVSS
VL: EIVMTQSPATLSVSPGERVTLSCRASQSVSSNLAWFQQKPGQAPRPLIYDASTRAAGIPARFSGSGSGTDFTLTISSLQSEDFAVYYCQQYDNWPLTFGGGTKVEIK
notes: Fully human mAb from IgG2 XenoMouse mice; also called AM-22; antibody I
In assay [1], B9 returned an MFI of 18.

B10: AMH15/AML15 (antibody, V domains shown)
VH: QVQLVESGGGVVQPGRSLRLSCAASGFTFSSYGMQWVRQAPGKGLEWVAVIWYDGNKKYYADSVKGRFTISRDNSKNTLYLQMNSLRAEDTAVYYCARGRVRDYYYGMDVWGQGTTVTVSS
VL: EIVMTQSPATLSVSPGERVTLSCRASQSVSSNLAWFQQKPGQAPRPLIYDASTRAAGIPARFSGSGSGTDFTLTISSLQSEDFAVYYCQQYDNWPLTFGGGTKVEIK
notes: also called AM-15
B10 displayed an MFI in assay [3] of 6.

B11: AMH14/AML14 (antibody, V domains shown)
VH: QVQLVQSGAEVKKPGASVKVSCKASGYTFTRYGISWVRQAPGQGLEWMGWISTYSGNTNYAQKLQGRVTMTTDTSTSTAYMELRSLRSDDTAVYYCARRQLYFDYWGQGTLVTVSS
VL: EIVMTQSPATLSVSPGERATLSCRASQSVSSNLAWFQQKPGQAPRPLIYDASTRATGVPARFSGSGSGTDFTLTISSLQSEDFAVYYCQQYDNWPLTFGGGTKVEIK
notes: Fully human mAb from IgG2 XenoMouse mice; Biotinylated in the Octet assay; also called AM-14; antibody K
B11 came in with an MFI in assay [3] of 10.

B12: AMH12/AML12 (antibody, IgG2, V domains shown)
VH: QVQLVQSGAEVKKPGASVKVSCKASGYTLTSYGISWVRQAPGQGLEWMGWISTYKGNTNYAQKLQGRVTMTTDTSTSTAYMELRSLRSDDTAVYYCARKQLVFDYWGQGTLVTVSS
VL: EIVMTQSPATLSVSPGERATLSCRASQSISSSLAWYQQKPGQAPRLLIYGASTRATGIPARFSGSGSGTEFTLTISSLQSENFAVYYCQQYDNWPLTFGGGTKVEIK
notes: Fully human mAb from IgG2 XenoMouse mice; also called AM-12; antibody M
B12 returned an MFI in assay [2] of 6.

B13: AMH16/AML16 (antibody, IgG2, V domains shown)
VH: QVQLVQSGAEVKKPGASVKVSCKASGYTFTSYGISWVRQAPGQGLEWMGWISAYNGNTKYAQKLQGRVTMTTDTSTSTVYMELRSLRSDDTAVYYCARKQLVFDYWGQGTLVTVSS
VL: EIVMTQSPATLSVSPGERATLSCRASQSISTSLAWYQQKPGQAPRLLIYGTSTRATGIPARFSGSGSGTEFTLTISSLQSEDFAVYFCQQYDIWPLTFGGGTKVEIK
notes: Fully human mAb from IgG2 XenoMouse mice; also called AM-16; antibody O
B13 had an MFI in assay [2] of 6.
